Measurements from patent publication US20220002432A1 (VIRTUOSO BINCO, published 2022).
Where a chain is given by its changes, count along the chain named.

T1: Rhesus-ICAM1 (rhesus, UniProt Q5NKV6 28-480, limits assumed)
T1 sequence (looked up): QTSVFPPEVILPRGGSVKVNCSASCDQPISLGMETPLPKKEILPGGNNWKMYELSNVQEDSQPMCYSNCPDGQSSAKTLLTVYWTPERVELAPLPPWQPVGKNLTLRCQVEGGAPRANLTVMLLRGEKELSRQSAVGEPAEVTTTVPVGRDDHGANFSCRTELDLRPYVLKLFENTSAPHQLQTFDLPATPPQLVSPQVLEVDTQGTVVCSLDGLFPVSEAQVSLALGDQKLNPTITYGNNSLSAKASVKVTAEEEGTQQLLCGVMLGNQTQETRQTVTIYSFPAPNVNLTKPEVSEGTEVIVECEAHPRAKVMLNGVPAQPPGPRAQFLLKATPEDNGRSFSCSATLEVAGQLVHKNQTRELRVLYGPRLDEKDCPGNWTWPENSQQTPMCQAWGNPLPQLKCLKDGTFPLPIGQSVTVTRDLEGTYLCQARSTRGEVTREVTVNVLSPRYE

B1: 11F2 (antibody, human IgG1, kappa, V domains shown)
VH: QSVEESGGGLVKPGGTLTLTCTVSGFSLSSHAMGWVRQAPGKGLEYIGIIGSSDRTYYASWAKGRFTISKTSTTVDLKITSPTTEDTATYFCVRDPYDSYDDGYRLWGPGTLVTVSS
VL: AYDMTQTPASVEVAVGGTVTIKCQASQSIYRYLSWYQKKPGQRPKFLIYDASKLASGVPSRFEGSGSGTEFTLTISGAQSDDAATYYCQQAYSSGSIDNAFGGGTEVVVKR
notes: Rabbit-human chimeric anti-ICAM1: rabbit VH and VL on human IgG1 and kappa constant regions
B2: 16E4 (antibody, human IgG1, kappa, V domains shown)
VH: QSVEESGGRLVTPGTPLTLTCTVSGFSLSSHAMGWVRQAPGKGLQYIGIIGSSGSTYYASWAKGRFTISKTSTTVDLRLTSPTTEDTATYFCVRDPYDSFGDAYRLWGPGTLVTVSS
VL: B1 VL with R31S, L33C, K38Q, E63K, A78M, G95S, S96N, I97V
notes: as for B1
B3: 8B12 (antibody, human IgG1, kappa, V domains shown)
VH: B1 VH with S30T, Y100F
VL: B1 VL with R31S, K38Q, L54V, E63K, G77A, A78V, G95S, S96N, I97V, V108M
notes: as for B1
B4: 8H1 (antibody, human IgG1, kappa, V domains shown)
VH: QSVEESGGRLVTPGTPLTLTCTASGFSLSNYYMSWVRQAPGKGLEWIGIISDSGSTYYASWAKGRFTISKTSTTVDLKITSPTTEDTATYFCARDWSYDSSSGYYYYDMDLWGPGTLVTVSA
VL: GYDMTQTPASVEVAVGGTVTIKCQASQSINSWLAWFQHKPGQPPKRLIYKASTLASGVSSRFKGSGSGTQFTLTISGVESADAATYYCQQGYSRSDGEHVFGGGTEVVVKR
notes: as for B1
B5: 11G7 (antibody, human IgG1, kappa, V domains shown)
VH: QSVEESGGRLVTPGTPLTLTCTVSGFSLSDYYMSWVRQAPGKGLEWIGIISDSGSTYYASWAKGRFTISKTSSTTVDLKITSPTTEDTATYFCARDWSYDSSSGYYYYDMDLWGPGTLVTVSA
VL: B4 VL with G1A, A34S, Q37H, H38Q
notes: as for B1
B6: 14H1 (antibody, human IgG1, kappa, V domains shown)
VH: B4 VH with A23V, K78S, S101T
VL: B4 VL with G1A, A34S, Q37H, H38Q
notes: as for B1
B7: 4H5 (antibody, human IgG1, kappa, V domains shown)
VH: B4 VH with S55T
VL: B4 VL with A34V, Q70H
notes: as for B1
B8: 15D10 (antibody, human IgG1, kappa, V domains shown)
VH: B4 VH with S29N, G54D, S55N, Y98L
VL: B4 VL with G1A, V11M, S28N, N30H, H38Q, S59P, E79Q, A81D
notes: as for B1
B9: 5B12 (antibody, human IgG1, kappa, V domains shown)
VH: QSLEESGGRLVTPGTPLTLTCTVSGFSLSSYGMSWVRQAPGKGLEYIGWISFSGSAYYANWAKGRFTISKTSTTVDLKITSPTTEDTATYFCARGGDYGGSTYILNLWGPGTLVTVSS
VL: AFELTQTPSSVEAAVGGTVTIKCQASESIDSYLSWYQQKPGQPPKLLIYAASTLASGVSSRFKGSGSGTEFTLTISDLESADAATYYCQSYSGTITTSGGAFGGGTEVVVKR
notes: as for B1
B10: 10B8 (antibody, human IgG1, kappa, V domains shown)
VH: B9 VH with T15G, P16S
VL: B9 VL with D30N, T96S
notes: as for B1
B11: 4618_1 (antibody, human IgG1, kappa, V domains shown)
VH: EVQLLESGGGLVQPGGSLRLSCAASGFPFDVYAMSWVRQAPGKGLEWVSAISGSGGSTFYADSVKGRFTISRDNSKNTLYLQMNSLRAEDTAVYYCAKRGTYAYSFPTGFDYWGQGTLVTVSS
VL: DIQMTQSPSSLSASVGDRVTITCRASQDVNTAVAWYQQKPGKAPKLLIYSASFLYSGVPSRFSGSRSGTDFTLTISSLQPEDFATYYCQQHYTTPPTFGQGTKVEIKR
notes: Human IgG1 with the common anti-HER2 light chain; Library-derived anti-CD38
B12: 4618_5F_12 (antibody, human IgG1, kappa, V domains shown)
VH: B11 VH with V31A, F106Y
VL: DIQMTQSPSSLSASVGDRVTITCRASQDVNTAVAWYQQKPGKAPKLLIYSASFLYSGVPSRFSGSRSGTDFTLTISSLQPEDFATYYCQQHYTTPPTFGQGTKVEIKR
notes: Human IgG1 with the common anti-HER2 light chain
B13: 32218_2 (antibody, human IgG1, kappa, V domains shown)
VH: B11 VH with V31T, F59Y
VL: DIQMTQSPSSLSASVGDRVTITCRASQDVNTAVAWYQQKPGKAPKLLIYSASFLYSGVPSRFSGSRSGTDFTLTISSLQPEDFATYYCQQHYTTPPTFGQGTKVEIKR
notes: as for B11
B14: 32018_7 (antibody, human IgG1, kappa, V domains shown)
VH: B11 VH with D30G, V31T, A103G
VL: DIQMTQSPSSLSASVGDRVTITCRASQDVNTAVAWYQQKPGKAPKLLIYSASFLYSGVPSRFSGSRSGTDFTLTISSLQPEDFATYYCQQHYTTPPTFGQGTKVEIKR
notes: as for B11
B15: 32218_1 (antibody, human IgG1, kappa, V domains shown)
VH: B11 VH with D30G
VL: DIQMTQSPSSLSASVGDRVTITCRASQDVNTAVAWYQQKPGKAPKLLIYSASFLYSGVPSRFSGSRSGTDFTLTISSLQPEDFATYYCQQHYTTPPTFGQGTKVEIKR
notes: as for B11
B16: 4618_1_12 (antibody, human IgG1, kappa, V domains shown)
VH: B11 VH with F106Y
VL: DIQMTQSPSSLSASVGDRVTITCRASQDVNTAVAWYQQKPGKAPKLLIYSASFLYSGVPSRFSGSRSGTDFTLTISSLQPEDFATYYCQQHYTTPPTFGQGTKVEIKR
notes: as for B11
B17: 4618_5_12 (antibody, human IgG1, kappa, V domains shown)
VH: B11 VH with V31A, F59Y, F106Y
VL: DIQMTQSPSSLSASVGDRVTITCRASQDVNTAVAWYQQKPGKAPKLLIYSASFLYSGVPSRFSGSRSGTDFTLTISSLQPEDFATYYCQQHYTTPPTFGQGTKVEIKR
notes: as for B11
B18: 4618_12 (antibody, human IgG1, kappa, V domains shown)
VH: B11 VH with D30G, F106Y
VL: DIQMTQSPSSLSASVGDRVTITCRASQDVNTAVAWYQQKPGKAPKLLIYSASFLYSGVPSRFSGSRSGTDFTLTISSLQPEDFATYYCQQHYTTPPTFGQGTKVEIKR
notes: as for B12
B19: 4618_5 (antibody, human IgG1, kappa, V domains shown)
VH: B11 VH with V31A, F59Y
VL: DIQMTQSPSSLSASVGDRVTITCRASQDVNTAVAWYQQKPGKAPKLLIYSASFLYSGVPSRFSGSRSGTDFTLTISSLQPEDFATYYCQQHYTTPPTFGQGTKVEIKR
notes: as for B11

Molecular target: T2, ICAM1 on the surface of DU145 cells (human, UniProt P05362 28-532)
T2 construct: whole, on cells
T2 sequence (P05362 28-532): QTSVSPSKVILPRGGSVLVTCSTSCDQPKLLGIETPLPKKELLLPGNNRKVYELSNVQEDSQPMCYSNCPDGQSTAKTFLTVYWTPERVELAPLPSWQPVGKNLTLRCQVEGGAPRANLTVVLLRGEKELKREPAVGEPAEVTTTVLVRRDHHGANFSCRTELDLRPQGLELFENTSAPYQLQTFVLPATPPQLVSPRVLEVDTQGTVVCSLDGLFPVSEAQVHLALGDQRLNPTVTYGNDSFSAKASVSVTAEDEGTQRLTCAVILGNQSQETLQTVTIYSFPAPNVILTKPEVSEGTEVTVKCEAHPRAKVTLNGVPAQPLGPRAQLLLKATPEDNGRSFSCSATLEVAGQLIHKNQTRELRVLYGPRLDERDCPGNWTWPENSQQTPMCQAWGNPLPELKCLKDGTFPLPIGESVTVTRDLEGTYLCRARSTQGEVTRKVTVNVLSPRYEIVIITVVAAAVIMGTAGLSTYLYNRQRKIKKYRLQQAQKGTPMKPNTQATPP
Assay: flow cytometry, DU145 cells;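 also: purified antibodies in dilution series bound to cells for 1 h at 4 °C, detected with a fluorescent secondary antibody (1 h, 4 °C, dark), read by flow cytometry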
Procedure: Harvested cells were centrifuged at 2000 rpm for 5 min and resuspended with 10-15 ml ice-cold culture medium. Cells were counted and then 3×10⁶ cells were resuspended per mL of blocking buffer (PBS plus 2% FBS). 100 μl of the cell suspension was dispensed into each well of a 96-well plate and incubated at room temperature for 10-20 min. […] While incubating, purified antibodies were diluted to the desired dilution with blocking buffer. After a 10-20 minutes incubation, cells were centrifuged for 5 min at 2000 rmp in a refrigerated centrifuge. Blocking buffer was aspirated, and cells were resuspended in 100 μl/well diluted antibodies and incubated for 1 hour at 4° C. The cells were then washed 3 times with PBS plus 2% FBS. After the final wash, the cells were resuspended in 100 μl 1:500 diluted secondary antibody (Invitrogen, Cat #: A10631) and incubated for 1 hour at 4° C. in the dark. The cells were then washed 3 times with 200 μl PBS by centrifuging at 2000 rpm for 5 min. After the last wash, the cells were resuspended in 300 μl cold PBS and analyzed on a FACSVerse™ (BD Biosciences) flow cytometer.

| EC50 [nM] | Max Binding MFI [MFI] | Binder |
| --- | --- | --- |
| 1.31 | 4060 | B1 |
| 1.45 | 3700 | B2 |
| 1.02 | 3750 | B3 |
| 1.82 | 5270 | B4 |
| 1.04 | 4820 | B5 |
| 0.591 | 4690 | B6 |
| 1.31 | 4720 | B7 |
| 0.879 | 5000 | B8 |
| 0.113 | 5940 | B9 |
| 0.251 | 6220 | B10 |

Molecular target: recombinant human CD38 (human, UniProt P28907 43-300, limits assumed)
Assay: SPR (Biacore 8K), antibody captured, antigen injected
Procedure: (§1) The binding kinetics of the anti-CD38 and anti-ICAM1 antibodies were evaluated on a Biacore 8K instrument (GE Healthcare). Biacore Series S CM5 sensor chips were immobilized with monoclonal mouse anti-human IgG (Fc) antibody (human antibody capture kit from GE Healthcare). Antibodies were captured on each flow cell. Serial 3-fold dilutions of each antigen were injected at a flow rate of 30 μl/min. Each sample was analyzed with 1 min association and 10 min dissociation at room temperature (25° C.). After each injection, the chip was regenerated using 3M MgCl₂. A 1:1 Langmuir model of simultaneous fitting of kₒₙ and koff was used for kinetics analysis.

| Kd [nM] | koff [s⁻¹] | kon [M⁻¹ s⁻¹] | Binder |
| --- | --- | --- | --- |
| 3.81 | 0.00188 | 494000 | B11 |
| 0.66 | 0.000295 | 449000 | B12 |
| 13.1 | 0.00887 | 675000 | B13 |
| 38.2 | 0.0116 | 304000 | B14 |
| 3.61 | 0.00178 | 493000 | B15 |
| 0.42 | 0.000273 | 657000 | B16 |
| 1.68 | 0.000596 | 354000 | B17 |
| 1.79 | 0.00077 | 430000 | B18 |
| 2.23 | 0.00121 | 542000 | B19 |

Molecular target: T3, cynomolgus CD38 ECD (cynomolgus, UniProt Q5VAN0 44-301, biotinylated on the AviTag during preparation)
T3 construct: also called Cyno-CD38; Avi-Cyno CD38 ECD
Assay: as above
Procedure: as §1

| Kd [nM] | koff [s⁻¹] | kon [M⁻¹ s⁻¹] | Binder |
| --- | --- | --- | --- |
| 1.68 | 0.00288 | 1.71e+06 | B11 |
| 0.83 | 0.00144 | 1.74e+06 | B12 |
| 7.43 | 0.0156 | 2.1e+06 | B13 |
| 12.4 | 0.0155 | 1.25e+06 | B14 |
| 4.1 | 0.00496 | 1.21e+06 | B15 |
| 0.62 | 0.00157 | 2.53e+06 | B16 |
| 1.33 | 0.00168 | 1.26e+06 | B17 |
| 1.65 | 0.00253 | 1.53e+06 | B18 |
| 1.48 | 0.00321 | 2.17e+06 | B19 |

Molecular target: T4, recombinant human ICAM1 (human, UniProt P05362 28-480, limits assumed)
T4 sequence (P05362 28-480 limits assumed): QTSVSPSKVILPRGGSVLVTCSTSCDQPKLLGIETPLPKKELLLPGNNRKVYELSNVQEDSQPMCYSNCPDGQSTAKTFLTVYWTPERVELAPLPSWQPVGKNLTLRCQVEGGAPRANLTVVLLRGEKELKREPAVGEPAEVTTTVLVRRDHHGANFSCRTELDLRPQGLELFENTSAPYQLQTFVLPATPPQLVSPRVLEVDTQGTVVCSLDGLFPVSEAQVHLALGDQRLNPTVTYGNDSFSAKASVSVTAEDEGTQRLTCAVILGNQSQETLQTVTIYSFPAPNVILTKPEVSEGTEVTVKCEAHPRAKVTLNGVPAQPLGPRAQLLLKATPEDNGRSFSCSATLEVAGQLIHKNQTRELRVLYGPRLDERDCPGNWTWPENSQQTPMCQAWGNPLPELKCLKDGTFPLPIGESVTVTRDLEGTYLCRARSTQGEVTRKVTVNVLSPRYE
Assay: as above
Procedure: as §1

| Kd [nM] | koff [s⁻¹] | kon [M⁻¹ s⁻¹] | Binder |
| --- | --- | --- | --- |
| 0.29 | 0.000131 | 456000 | B1 |
| 0.57 | 0.000134 | 237000 | B2 |
| 0.26 | 0.000115 | 442000 | B3 |
| 3.1 | 0.000345 | 111000 | B4 |
| 2.65 | 0.000271 | 103000 | B5 |
| 1.62 | 0.000237 | 146000 | B6 |
| 3.39 | 0.000256 | 75600 | B7 |
| 2.12 | 0.000181 | 85500 | B8 |
| 2.74 | 0.000584 | 213000 | B9 |
| 3.32 | 0.000682 | 206000 | B10 |

Molecular target: T1, Rhesus-ICAM1
Assay: as above
Procedure: as §1

| Kd [nM] | koff [s⁻¹] | kon [M⁻¹ s⁻¹] | Binder |
| --- | --- | --- | --- |
| 0.25 | 0.000224 | 914000 | B1 |
| 0.54 | 0.000277 | 517000 | B2 |
| 0.88 | 0.000658 | 746000 | B3 |
| 2.92 | 0.00125 | 427000 | B4 |
| 4.28 | 0.000624 | 146000 | B5 |
| 2.25 | 0.000434 | 193000 | B6 |
| 4.11 | 0.000568 | 138000 | B7 |
| 1.79 | 0.000421 | 236000 | B8 |
| 8.2 | 0.00218 | 266000 | B9 |
| 8.27 | 0.00245 | 296000 | B10 |

Molecular target: T4, recombinant human ICAM1
Assay: ELISA: plate coated with 1 ug/ml recombinant human ICAM1 ECD, serially diluted antibody, OD450
Procedure: (§2) The plate was coated overnight at 4° C. with 1 μg/ml recombinant CD38 or ICAM1. After washing 3 times, the plate was blocked with 300 μl 1% BSA in PBST at 37° C. for 1 hour. Serially diluted antibodies were added and incubated at 37° C. for 1 hour. The plate was then washed 4 times with PBST and incubated with 1:5000 diluted 2nd antibody (Sigma, Cat #A0293) at 37° C. for 1 hour.

| EC50 (read off the curve) [nM] | Binder |
| --- | --- |
| ~0.04 | B1 |
| ~0.04 | B2 |
| ~0.04 | B3 |
| ~0.04 | B4 |
| ~0.04 | B5 |
| ~0.04 | B6 |
| ~0.04 | B7 |
| ~0.04 | B8 |
| ~0.04 | B9 |
| ~0.04 | B10 |

Molecular target: T1, Rhesus-ICAM1
Assay: ELISA: plate coated with 1 ug/ml recombinant rhesus ICAM1 ECD, serially diluted antibody, OD450
Procedure: as §2

| EC50 (read off the curve) [nM] | Binder |
| --- | --- |
| ~0.04 | B1 |
| ~0.04 | B2 |
| ~0.04 | B3 |
| ~0.04 | B4 |
| ~0.04 | B5 |
| ~0.04 | B6 |
| ~0.04 | B7 |
| ~0.04 | B8 |
| ~0.04 | B9 |
| ~0.04 | B10 |
